Source: patent US9347942B2, “Ultrasensitive cell based sensors and uses thereof” (CANVAX BIOTECH SL, priority 2010, dated 2016)

Key:
Format in all cases: cell-based
SSTR2 = target: T1, SSTR2 (Homo sapiens, UniProt P30874); assay: Agonist-induced exocytosis of granzyme B, sandwich ELISA (Example 9); settings: agonist 10 uM, 60 minutes
T1 construct: the entire human GPCR; mouse immunoglobulin kappa signal peptide (N); expressed in transfected cells
From the text: (§1) Human granzyme B was selected as reporter, chimeric promoter of hCMV-MoLV5′LTR as promoter for reporter expression, RBL-2H3 as hemopoyetic cells with professional regulated exocytosis and several GPCRs as exocytosis modulators under the control of Moloney Leukaemia virus 5′-LTR (MoMLV5′LTR, SEQ ID NO:3) as promoter for expression of exocytosis modulators. […] Vectors for expression of granzyme B had the chimeric promoter of hCMV-MoLV5′LTR-GranzymeB-IRES-NGFR with hygromycin resistance for stable transfections. Vectors for GPCR were electroporated first, cells were selected with neomycin at 500 ug/mL for about two weeks and cells were analysed by flow cytometry (Guava Technologies, USA) with anti-cmyc tag antibody (anti-cmyc-FITC, clone 9E10, Sigma-Aldrich, USA) for surface expression. Positive cells were separated by magnetic separation using anti-cmyc monoclonal antibody conjugated to biotin (Miltenyi Biotec, Germany) and streptavidin-MACS (Miltenyi Biotec, Germany). After growing positive fraction of cells was again analysed by flow cytometry with the anti-cmyc tag antibody. Positive cells were individually electroporated with the vector for expression human granzyme B using a microporator (Digital Bio Technology, South Korea) and after 48 hours hygromycin at 1500 ug/mL and neomycin at 500 ug/mL were added to culture for selection. After selection for about 2 weeks cells were analysed by flow cytometry (Guava Technologies, USA) with an antibody against NGFR coupled to FITC. Positive population where magnetically separated by MACS using anti-NGFR-MACS sup.R (Miltenyi Biotec, Germany). Sorted populations were again analysed again by flow cytometry to check both the expression of the GPCR with the anti-cmyc tag antibody and with anti-NGFR antibody to check granzyme B expression. […] GPCRs included were: SSTR2 and CHRM2 as alpha-i coupled GPCRs; AGTR1 and bradykinin type B1 receptor (BDKRB1) as alpha-q coupled GPCRs and AVPR2 as alpha-s coupled GPCR. […] Cells were seeded the night before experiment at 100.000 cells per well of a 96-well microplate in 100 uL of complete cell culture medium. Next day cells were washed with HBSS buffer and incubated with the ligand (agonist) at 10 uM of each GPCR in 30 uL of HBSS buffer at 37 Celsius degrees for 60 minutes and after centrifugation at 400 g for 5 minutes supernatants were analysed for human granzyme B protein by a sandwich ELISA specific for human granzyme B (Ucytech, Netherlands).

AGTR1 = target: T2, AGTR1 (Homo sapiens, UniProt P30556); assay: as above; settings: agonist 10 uM, 60 minutes
T2 construct: the entire human GPCR; mouse immunoglobulin kappa signal peptide (N); expressed in transfected cells
T2 sequence (P30556 2-359): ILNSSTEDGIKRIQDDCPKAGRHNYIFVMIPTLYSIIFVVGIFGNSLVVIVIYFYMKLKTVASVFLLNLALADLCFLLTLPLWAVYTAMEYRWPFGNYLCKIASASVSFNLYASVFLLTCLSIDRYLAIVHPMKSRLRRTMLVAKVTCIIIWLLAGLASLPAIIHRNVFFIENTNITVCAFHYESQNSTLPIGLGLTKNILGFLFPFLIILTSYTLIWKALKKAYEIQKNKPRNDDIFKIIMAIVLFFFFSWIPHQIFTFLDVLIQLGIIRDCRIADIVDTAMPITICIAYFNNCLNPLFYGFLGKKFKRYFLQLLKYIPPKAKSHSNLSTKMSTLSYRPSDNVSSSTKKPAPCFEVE
From the text: as §1

[1] = target: T3, bradykinin type B1 receptor (BDKRB1) (Homo sapiens, UniProt P46663); assay: as above; settings: agonist 10 uM, 60 minutes
T3 construct: the entire human GPCR; mouse immunoglobulin kappa signal peptide (N); expressed in transfected cells
T3 sequence (P46663 5-353 limits assumed): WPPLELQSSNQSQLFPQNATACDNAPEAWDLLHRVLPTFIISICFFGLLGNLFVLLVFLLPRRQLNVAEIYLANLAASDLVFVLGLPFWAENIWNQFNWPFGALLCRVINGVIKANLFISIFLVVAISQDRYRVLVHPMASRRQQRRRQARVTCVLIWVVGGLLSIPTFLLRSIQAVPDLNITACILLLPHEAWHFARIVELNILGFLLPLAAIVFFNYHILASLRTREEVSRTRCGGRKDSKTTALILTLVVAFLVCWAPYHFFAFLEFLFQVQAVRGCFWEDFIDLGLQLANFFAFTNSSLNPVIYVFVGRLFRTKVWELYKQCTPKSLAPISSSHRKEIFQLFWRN
From the text: as §1

[2] = target: T4, bradykinin type B1 receptor (Homo sapiens, UniProt P46663); assay: Exocytosis time optimisation, granzyme B FRET readout (Example 12); settings: agonist 10 uM
T4 construct: the entire human GPCR; mouse immunoglobulin kappa signal peptide (N); expressed in transfected cells
T4 sequence (P46663 5-353 limits assumed): T3 sequence (P46663 5-353 limits assumed)
From the text: An experiment was designed to optimize assay conditions such as: exocytosis time, number of steps needed for assay and uses of cells in suspension. Cells developed in example #9 expressing both a GPCR and human granzyme B were used in this example for optimization of exocytosis time. GPCRs included were CHRM2 (an alpha-i coupled GPCR) and bradykinin type B1 receptor (an alpha-q coupled GPCR). Carbachol and kallinin from Sigma-Aldrich (USA) were used as ligands for CHRM2 and bradykinin type B1 receptor, respectively and used at 10 uM final concentration in HBSS buffer. Cells were seeded the night before experiment at 20.000 cells per well of a 96-well microplate in 100 uL of complete cell culture medium. Next day cells were washed with HBSS buffer and incubated with the ligand (agonist) at 10 uM of each GPCR in 30 uL of HBSS buffer at 37 Celsius degrees for 5, 15, 30 or 60 minutes and after centrifugation at 400 g for 5 minutes supernatants were analysed for human granzyme B activity using FAM-[…]-TAMRA at 1 uM final concentration as the human granzyme B substrate. Released FAM was measured by excitation at 485 nm and emission at 535 nm in a BMG Labtech microplate fluorimeter in 96 well microplates. Microplates were incubated at 37 Celsius degrees on the reader and were kinetically read at 0, 15, 30, 45 and 60 minutes. Control wells with substrate only in HBSS buffer were included to subtract autofluorescence of substrates to both cells treated with ligands and to cells treated with HBSS buffer only. […] The signal to background is lower at longer exocytosis times due to the higher increase in basal release than the increase in specific signal after the first 5 to 15 minutes. Thus, any exocytosis time from probably less than 5 minutes to at least 60 minutes may be used for the methods of the present invention but longer exocytosis times produce a sensor with a lower signal to background, exocytosis is nearly complete at 5 minutes and signal to background is good for a robust sensor.

[3] = 100.000 cells, dilution 2250, after subtraction of 0.2 blank

T1 sequence (P30874 2-369): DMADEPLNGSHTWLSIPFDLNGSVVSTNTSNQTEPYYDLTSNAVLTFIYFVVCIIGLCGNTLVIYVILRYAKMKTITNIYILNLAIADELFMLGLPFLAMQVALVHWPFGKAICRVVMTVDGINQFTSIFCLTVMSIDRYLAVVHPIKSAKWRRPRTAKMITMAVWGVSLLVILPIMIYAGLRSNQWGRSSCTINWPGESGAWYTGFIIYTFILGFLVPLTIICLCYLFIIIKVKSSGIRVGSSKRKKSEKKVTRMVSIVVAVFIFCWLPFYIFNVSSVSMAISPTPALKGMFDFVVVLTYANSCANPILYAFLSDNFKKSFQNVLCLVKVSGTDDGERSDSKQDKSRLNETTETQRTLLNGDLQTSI

With `CC(C)[C@@H]1NC(=O)[C@H](CCCCN)NC(=O)[C@@H](Cc2c[nH]c3ccccc23)NC(=O)[C@H](Cc2ccc(O)cc2)NC(=O)[C@H](C)N(C)C(=O)[C@H](Cc2ccccc2)NC1=O` [Seglitide, seglitide] the “Absorbance at maximal dilution of ELISA tested” value (from here on “Absorbance at maximal dilution”) (SSTR2; [3]) was 2.4 and the “Sensitivity (minimal amount of cells needed)” value (shortened to “Sensitivity”) (SSTR2; granzyme B ELISA) was <150 cells.
For angiotensin, the “Absorbance at maximal dilution” value (AGTR1; [3]) was 1.8 and the “Sensitivity” value (AGTR1; granzyme B ELISA) was <150 cells.
In the case of kallinin, the “Absorbance at maximal dilution” value [1, 3] is reported as 0.8, the “Sensitivity” value ([1]; granzyme B ELISA) is reported as <150 cells and the “exocytosis, % of maximal” value ([2]; 5 minutes, 20.000 cells) is reported as > 90%. For the same molecule, the “signal to background (S/B)” value ([2]; medium taken at 5 to 15 minutes) was 20-22, the “signal to background (S/B)” value ([2]; medium taken at 30 minutes) was 15-17 and the “signal to background (S/B)” value ([2]; medium taken at 60 minutes) was 8-10.
